# Test results taken from article PMC6436938.
# What was measured:
# [1] = target: Impβ labeled with fluorescent Alexa 488 dye (human) (UniProt Q14974); experiment: native gel or EMSA
# [2] = target: Impβ6M labeled with fluorescent Alexa 488 dye (human) (UniProt Q14974); experiment: native gel or EMSA
# Chain of Impβ6M labeled with fluorescent Alexa 488 dye (human) (Q14974 whole entry L174S/T175A/I178D/E214A/F217A/I218D): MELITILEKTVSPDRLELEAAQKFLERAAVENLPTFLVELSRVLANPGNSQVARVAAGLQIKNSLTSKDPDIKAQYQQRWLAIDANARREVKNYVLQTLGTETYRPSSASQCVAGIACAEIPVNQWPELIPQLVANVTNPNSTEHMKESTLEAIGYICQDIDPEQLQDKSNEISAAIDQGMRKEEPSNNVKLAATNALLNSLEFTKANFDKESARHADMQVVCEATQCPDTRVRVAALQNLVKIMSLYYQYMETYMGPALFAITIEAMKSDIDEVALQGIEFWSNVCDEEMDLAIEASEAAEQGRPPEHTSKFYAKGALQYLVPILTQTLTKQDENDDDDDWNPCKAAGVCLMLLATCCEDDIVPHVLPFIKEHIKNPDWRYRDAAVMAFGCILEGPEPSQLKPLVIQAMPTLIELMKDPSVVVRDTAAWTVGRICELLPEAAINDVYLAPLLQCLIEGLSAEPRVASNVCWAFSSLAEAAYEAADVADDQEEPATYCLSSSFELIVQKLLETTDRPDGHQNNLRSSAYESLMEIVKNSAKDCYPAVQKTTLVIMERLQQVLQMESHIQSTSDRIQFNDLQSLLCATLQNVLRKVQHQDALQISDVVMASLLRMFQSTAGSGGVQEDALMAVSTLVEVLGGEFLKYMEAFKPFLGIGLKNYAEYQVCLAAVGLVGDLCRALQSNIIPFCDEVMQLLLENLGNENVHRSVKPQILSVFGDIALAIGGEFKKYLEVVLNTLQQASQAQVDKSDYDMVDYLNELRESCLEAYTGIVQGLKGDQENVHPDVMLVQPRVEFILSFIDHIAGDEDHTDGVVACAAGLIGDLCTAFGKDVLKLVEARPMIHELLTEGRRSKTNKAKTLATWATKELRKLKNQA
# Chain of Impβ labeled with fluorescent Alexa 488 dye (human) (Q14974 whole entry): as the sequence (Q14974 whole entry L174S/T175A/I178D/E214A/F217A/I218D) above, with S174L, A175T, D178I, A214E, A217F, D218I counted along it
Kd [1] [nM],Kd [2] [µM],Substance
920,,Impα F527S/F529S (from UniProt P52292 1-529) (natural protein)
620,3.34,"importin α (Impα, Kapα) (from UniProt P52292 1-529) (natural protein)"
2890,,Imp7 F1028S and F1030S (natural protein)
1220,,Imp7 F1019S (natural protein)
